Numbering of substitutions follows the chain as printed. Numbers in names are those of the source.

The record followed here is PMC10786891, “Massively parallel profiling of RNA-targeting CRISPR-Cas13d”.

Sequences and labels used below:
T1: EsCas13d, nuclease-dead (Eubacterium siraeum, UniProt B0MS50, R295A;H300A;R849A;H854A)
T1 sequence: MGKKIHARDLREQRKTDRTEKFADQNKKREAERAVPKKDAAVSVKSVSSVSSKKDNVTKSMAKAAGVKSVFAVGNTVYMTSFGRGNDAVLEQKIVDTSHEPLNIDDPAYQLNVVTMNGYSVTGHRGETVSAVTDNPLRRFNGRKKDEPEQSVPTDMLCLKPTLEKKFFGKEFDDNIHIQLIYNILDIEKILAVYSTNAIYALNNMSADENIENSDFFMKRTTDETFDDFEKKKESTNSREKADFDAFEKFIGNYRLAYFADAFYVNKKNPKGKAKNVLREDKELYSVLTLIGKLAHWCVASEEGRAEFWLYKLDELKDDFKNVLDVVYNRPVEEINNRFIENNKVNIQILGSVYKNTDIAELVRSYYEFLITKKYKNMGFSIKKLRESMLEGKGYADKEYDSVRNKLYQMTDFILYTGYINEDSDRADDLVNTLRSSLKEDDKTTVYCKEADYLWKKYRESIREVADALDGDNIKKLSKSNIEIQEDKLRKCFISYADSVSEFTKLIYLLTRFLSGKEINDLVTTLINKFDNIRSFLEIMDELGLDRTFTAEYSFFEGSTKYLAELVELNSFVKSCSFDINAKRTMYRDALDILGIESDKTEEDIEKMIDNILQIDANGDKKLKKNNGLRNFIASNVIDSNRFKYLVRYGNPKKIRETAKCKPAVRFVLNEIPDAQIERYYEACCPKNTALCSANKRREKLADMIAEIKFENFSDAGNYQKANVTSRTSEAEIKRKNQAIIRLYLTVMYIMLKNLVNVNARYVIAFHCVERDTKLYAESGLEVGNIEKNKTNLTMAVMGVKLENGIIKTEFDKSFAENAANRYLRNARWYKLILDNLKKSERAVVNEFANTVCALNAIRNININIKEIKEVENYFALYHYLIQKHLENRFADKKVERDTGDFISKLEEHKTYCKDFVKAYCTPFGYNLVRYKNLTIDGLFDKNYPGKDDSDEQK

B1: target 2 MT 5'PFS GGU 3'PFS CAG (mixed)
RNA 1: CACCCGUGCAAAAUUGCAGGGGUCUAAAACCUUCUCCAAAUUGUUUCAUCCU
RNA 2: GGGAAUGGAUCCACAUCUACGAAUUCGGUAGGAUGAAACAAUUUGGAGAAGCAGAGAUCGGAAGAGCACACGU
B2: target 2 MT 5'PFS GAC 3'PFS AAC (mixed)
RNA 1: B1 RNA 1
RNA 2: B1 RNA 2 with G28A, U29C, C52A, G54C
B3: target 2 MT 5'PFS UAC 3'PFS ACU (mixed)
RNA 1: B1 RNA 1
RNA 2: B1 RNA 2 with G27U, G28A, U29C, C52A, A53C, G54U
B4: target 2 MT 5'PFS GCC 3'PFS UAA (mixed)
RNA 1: B1 RNA 1
RNA 2: B1 RNA 2 with G28C, U29C, C52U, G54A
B5: target 2 MT 5'PFS UGG 3'PFS ACG (mixed)
RNA 1: B1 RNA 1
RNA 2: B1 RNA 2 with G27U, U29G, C52A, A53C
B6: target 2 MT 5'PFS CUC 3'PFS CCG (mixed)
RNA 1: B1 RNA 1
RNA 2: B1 RNA 2 with G27C, G28U, U29C, A53C
B7: target 2 MT 5'PFS GCC 3'PFS UAU (mixed)
RNA 1: B1 RNA 1
RNA 2: B1 RNA 2 with G28C, U29C, C52U, G54U
B8: target 2 MT 5'PFS CUU 3'PFS UUA (mixed)
RNA 1: B1 RNA 1
RNA 2: B1 RNA 2 with G27C, G28U, C52U, A53U, G54A
B9: target 2 MT 5'PFS ACA 3'PFS AUU (mixed)
RNA 1: B1 RNA 1
RNA 2: B1 RNA 2 with G27A, G28C, U29A, C52A, A53U, G54U
B10: target 2 MT 5'PFS UGG 3'PFS ACU (mixed)
RNA 1: B1 RNA 1
RNA 2: B1 RNA 2 with G27U, U29G, C52A, A53C, G54U
B11: target 2 MT 5'PFS UUU 3'PFS UGC (mixed)
RNA 1: B1 RNA 1
RNA 2: B1 RNA 2 with G27U, G28U, C52U, A53G, G54C
B12: target 2 MT 5'PFS CUU 3'PFS UUG (mixed)
RNA 1: B1 RNA 1
RNA 2: B1 RNA 2 with G27C, G28U, C52U, A53U
B13: target 2 MT 5'PFS AUG 3'PFS UUC (mixed)
RNA 1: B1 RNA 1
RNA 2: B1 RNA 2 with G27A, G28U, U29G, C52U, A53U, G54C
B14: target 2 MT 5'PFS GAC 3'PFS AAA (mixed)
RNA 1: B1 RNA 1
RNA 2: B1 RNA 2 with G28A, U29C, C52A, G54A
B15: target 2 MT 5'PFS UGG 3'PFS ACC (mixed)
RNA 1: B1 RNA 1
RNA 2: B1 RNA 2 with G27U, U29G, C52A, A53C, G54C
B16: target 2 MT 5'PFS AAA 3'PFS CAG (mixed)
RNA 1: B1 RNA 1
RNA 2: B1 RNA 2 with G27A, G28A, U29A
B17: target 2 MT 5'PFS AAA 3'PFS CAC (mixed)
RNA 1: B1 RNA 1
RNA 2: B1 RNA 2 with G27A, G28A, U29A, G54C
B18: target 2 MT 5'PFS GCC 3'PFS UAC (mixed)
RNA 1: B1 RNA 1
RNA 2: B1 RNA 2 with G28C, U29C, C52U, G54C
B19: target 2 MT 5'PFS CUC 3'PFS CCA (mixed)
RNA 1: B1 RNA 1
RNA 2: B1 RNA 2 with G27C, G28U, U29C, A53C, G54A
B20: target 2 MT 5'PFS GCC 3'PFS UAG (mixed)
RNA 1: B1 RNA 1
RNA 2: B1 RNA 2 with G28C, U29C, C52U
B21: target 2 MT 5'PFS GCA 3'PFS UUA (mixed)
RNA 1: B1 RNA 1
RNA 2: B1 RNA 2 with G28C, U29A, C52U, A53U, G54A
B22: target 2 MT 5'PFS AGG 3'PFS CAU (mixed)
RNA 1: B1 RNA 1
RNA 2: B1 RNA 2 with G27A, U29G, G54U
B23: target 2 MT 5'PFS CUA 3'PFS UCU (mixed)
RNA 1: B1 RNA 1
RNA 2: B1 RNA 2 with G27C, G28U, U29A, C52U, A53C, G54U
B24: target 2 MT 5'PFS UGC 3'PFS UUC (mixed)
RNA 1: B1 RNA 1
RNA 2: B1 RNA 2 with G27U, U29C, C52U, A53U, G54C
B25: target 2 MT 5'PFS UGG 3'PFS ACA (mixed)
RNA 1: B1 RNA 1
RNA 2: B1 RNA 2 with G27U, U29G, C52A, A53C, G54A
B26: target 2 MT 5'PFS CUC 3'PFS UUG (mixed)
RNA 1: B1 RNA 1
RNA 2: B1 RNA 2 with G27C, G28U, U29C, C52U, A53U
B27: target 2 MT 5'PFS CUU 3'PFS UUC (mixed)
RNA 1: B1 RNA 1
RNA 2: B1 RNA 2 with G27C, G28U, C52U, A53U, G54C
B28: target 2 MT 5'PFS UGC 3'PFS UUA (mixed)
RNA 1: B1 RNA 1
RNA 2: B1 RNA 2 with G27U, U29C, C52U, A53U, G54A
B29: target 2 MT 5'PFS CUU 3'PFS UUU (mixed)
RNA 1: B1 RNA 1
RNA 2: B1 RNA 2 with G27C, G28U, C52U, A53U, G54U
B30: target 2 MT 5'PFS UUU 3'PFS UGU (mixed)
RNA 1: B1 RNA 1
RNA 2: B1 RNA 2 with G27U, G28U, C52U, A53G, G54U
B31: target 2 MT 5'PFS GGA 3'PFS UGC (mixed)
RNA 1: B1 RNA 1
RNA 2: B1 RNA 2 with U29A, C52U, A53G, G54C
B32: target 2 MT 5'PFS CUC 3'PFS CCU (mixed)
RNA 1: B1 RNA 1
RNA 2: B1 RNA 2 with G27C, G28U, U29C, A53C, G54U
B33: target 1 C2G (mixed)
RNA 1: CACCCGUGCAAAAAUGCAGGGGUCUAAAACUGAGCGGAUAACCUCUCUAUGG
RNA 2: GGGAAUGGAUCCACAUCUACGAAUUCGUACCAUAGAGAGGUUAUCCGCUGACCGAGAUCGGAAGAGCACACGU
B34: target 1 insU 3' of 20,insG 3' of 9 (mixed)
RNA 1: B33 RNA 1
RNA 2: GGGAAUGGAUCCACAUCUACGAAUUCGUACCAUUAGAGAGGUUAGUCCGCUCACCGAGAUCGGAAGAGCACACGU
B35: target 1 insU 3' of 12,insC 3' of 1 (mixed)
RNA 1: B33 RNA 1
RNA 2: GGGAAUGGAUCCACAUCUACGAAUUCGUACCAUAGAGAGGUUUAUCCGCUCACCCGAGAUCGGAAGAGCACACGU

The series has as its target T1, EsCas13d, nuclease-dead. Kind of series: crRNA (strand 1, pre-loaded); Mg2+; 40 mM Tris-HCl pH 7.5, 150 mM NaCl, 6 mM MgCl2, 1 mM DTT, 0.1% Tween-20, 0.2 mg/ml BSA; 25 C; 10 min per concentration, then washed. Conditions: tags: His6-TwinStrep-SUMO cleaved; N-terminal SNAP kept (SNAP-Surface 488); label: 3' end held by stalled T7 RNA polymerase.
On to B1, for which the Kd is 13 ± 1 nM. The value for B2 was 11.4 ± 2.3 nM. Take B3: binding was put at a Kd of 9 ± 2.5 nM.

Take B4: the Kd turned out to be 10.9 ± 2.7 nM.

For B5, the Kd was found to be 5.5 ± 0.4 nM. Consider B6, for which the dissociation constant (Kd) stood at 2.21 ± 0.24 nM. In turn, B7 gave a Kd of 22 ± 4 nM. As for B8, the figure is 5 ± 0.5 nM; as for B9, 5.5 ± 0.8 nM; as for B10, 9.5 ± 1.3 nM. Molecule B11 yielded a Kd of 5.2 ± 0.4 nM. B12 gave a Kd of 6 ± 0.7 nM. The molecule B13 showed a Kd of 21 ± 4 nM. For the molecule B14, the Kd was 9.5 ± 1.9 nM. Compared with the last molecule, the Kd is about 2.2-fold lower. B15 yielded a Kd of 27 ± 6 nM. As for B16, the dissociation constant (Kd) was determined as 3.8 ± 0.6 nM.

As for B17, the Kd is 5.4 ± 1.2 nM. In turn, B18 came in with a Kd of 20 ± 7 nM. In turn, B19 displayed a Kd of 4.8 ± 0.7 nM. Molecule B20 returned a Kd of 12 ± 3.4 nM. B21: binding was put at a Kd of 17 ± 4 nM. B22 came in with a Kd of 4.6 ± 0.6 nM. B23: the Kd turned out to be 3.6 ± 0.4 nM. In the case of B24, the Kd was around 40 nM. On to B25, for which the Kd turned out to be 6 ± 0.7 nM.

For the molecule B26, binding was characterised by a dissociation constant (Kd) of 3.2 ± 0.5 nM.

In turn, B27 showed a Kd of 9.2 ± 2 nM. This Kd lies about 2.9-fold higher than the previous one. B28 had a Kd of around 27 nM. As to B29, the affinity, expressed as Kd, was 8.4 ± 0.7 nM. B30 came in with a Kd of 16 ± 1.8 nM. Compared with the last molecule, the Kd is about 1.9-fold higher. As for B31, the dissociation constant (Kd) worked out at 10.5 ± 0.9 nM.

The molecule B32 had a Kd of 23 ± 7 nM.

In the case of B33, the Kd was found to be 8.3 ± 0.6 nM. B34 came in with a Kd of 29 ± 4 nM. As to B35, the dissociation constant (Kd) is 8.9 ± 0.7 nM.
